Experiments:
[1] = target: T1, PriB (Neisseria gonorrhoeae, UniProt Q5F924 1-100); experiment: fluorescence polarization; 20 mM Tris-HCl pH 8, 10% glycerol, 50 mM NaCl, 1 mM 2-mercaptoethanol, 0.1 mg/ml BSA, 1 nM fluorescein-labeled DNA, 25 C; conditions: protein: recombinant, chain copies: 2
T1 sequence: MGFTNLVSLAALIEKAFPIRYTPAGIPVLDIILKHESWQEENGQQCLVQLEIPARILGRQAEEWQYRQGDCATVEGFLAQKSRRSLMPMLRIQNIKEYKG

[2] = target: T2, PriA helicase (Neisseria gonorrhoeae, UniProt Q5F6V8 1-729); experiment: as above; conditions: protein: recombinant
T2 sequence: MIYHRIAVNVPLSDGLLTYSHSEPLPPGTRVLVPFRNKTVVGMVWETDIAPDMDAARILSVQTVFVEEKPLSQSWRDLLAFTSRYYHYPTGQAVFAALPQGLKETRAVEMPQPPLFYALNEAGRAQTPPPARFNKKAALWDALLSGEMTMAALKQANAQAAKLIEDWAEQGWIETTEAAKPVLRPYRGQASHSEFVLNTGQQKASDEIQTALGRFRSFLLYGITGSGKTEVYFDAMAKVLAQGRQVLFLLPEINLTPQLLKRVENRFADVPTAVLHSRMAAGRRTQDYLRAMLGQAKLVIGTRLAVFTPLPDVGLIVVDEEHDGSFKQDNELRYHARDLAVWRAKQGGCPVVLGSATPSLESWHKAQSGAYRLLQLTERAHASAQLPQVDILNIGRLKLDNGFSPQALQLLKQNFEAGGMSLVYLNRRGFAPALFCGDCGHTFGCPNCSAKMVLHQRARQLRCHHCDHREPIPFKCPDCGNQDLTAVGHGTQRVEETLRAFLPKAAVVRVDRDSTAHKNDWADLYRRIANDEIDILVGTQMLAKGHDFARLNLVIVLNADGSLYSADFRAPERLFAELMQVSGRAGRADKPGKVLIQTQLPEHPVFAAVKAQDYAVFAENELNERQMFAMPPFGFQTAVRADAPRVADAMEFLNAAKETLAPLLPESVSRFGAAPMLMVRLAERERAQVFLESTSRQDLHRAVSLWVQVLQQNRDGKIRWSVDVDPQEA

[3] = target: T3, N. gonorrhoeae PriA (N. gonorrhoeae) (UniProt Q5F6V8)
T3 sequence: T2 sequence

[4] = target: T3, N. gonorrhoeae PriA (N. gonorrhoeae); remark: listed apart in the source
[5] = substrate: Nc1ncnc2c1ncn2[C@@H]1O[C@H](COP(=O)(O)OP(=O)(O)OP(=O)(O)O)[C@@H](O)[C@H]1O; experiment: NADH-coupled spectrophotometric ATPase assay (pyruvate kinase / lactate dehydrogenase); assay type: biochemical, Neisseria gonorrhoeae; conditions: 100 nM Fork 3 DNA, no PriB, 10 nM PriA, 20 mM Hepes pH 8, 50 mM NaCl, 25°C
Source text: NADH-coupled spectrophotometric ATPase assay (pyruvate kinase / lactate dehydrogenase) on N. gonorrhoeae PriA

[6] = label: 3' fluorescein on S5 (nascent lagging strand), 25 bp duplex, 3' overhang 25 nt on strand 1
[7] = label: 3' fluorescein, single strand

B1: 3' Overhang (oML276/oML277) (mixed)
DNA 1: AACGTCATAGACGATTACATTGCTACATGGAGCTGTCTAGAGGATCCGAC
DNA 2: TAGCAATGTAATCGTCTATGACGTT
B1 showed a Kd [1, 6] of 628 ± 95 nM and a Kd [2, 6] of 234 ± 62 nM.

B2: N. gonorrhoeae PriB (natural protein)
chain: T1 sequence
B2 was tested, and the percent unwinding of 1 nM Fork 3 by 2 nM PriA against PriB concentration (0 to 100 nM as monomers; 36% without PriB, near saturation at 20 nM) [3] was 86%, the fold stimulation of PriA helicase activity by PriB (unwinding with versus without PriB; 2 nM PriA, 100 nM PriB monomers, 1 nM 15 bp fork, Fork 1) [4] was 1.2 fold and the fold stimulation of PriA helicase activity by PriB (unwinding with versus without PriB; 2 nM PriA, 100 nM PriB monomers, 1 nM 25 bp fork, Fork 2) [4] was 1.7 fold. The fold stimulation of PriA helicase activity by PriB (unwinding with versus without PriB; 2 nM PriA, 100 nM PriB monomers, 1 nM 40 bp fork, Fork 3) [4] was 2.4 fold.

Work on AAGCACAATTACCCACGC (ssDNA) [ssDNA (oML228)] yielded a Kd [1, 7] of 662 ± 37 nM and a Kd [2, 7] of 307 ± 43 nM.

B3: N. gonorrhoeae PriA (Neisseria gonorrhoeae FA 1090) (protein)
chain: T2 sequence
B3 was tested, and the Km [5] was 54 ± 19 µM and the kcat [5] was 9 ± 1 s⁻¹.

— publication PMC3179954, “A bacterial PriB with weak single-stranded DNA binding activity can stimulate the DNA unwinding activity of its cognate PriA helicase” (BMC Microbiology, 2011)
